Experimental data as given in patent US20190248902A1 (published 2019).

Assays:
[1] = molecular target: T1, human ASGR-1 carbohydrate binding domain (CBD) (148-291) (human, UniProt P07306 148-291); experiment: X-ray crystal structure of the complex, 2.6 A
T1 construct: also called ASGR-1 CBD; ASGR-1 CRD
T1 sequence: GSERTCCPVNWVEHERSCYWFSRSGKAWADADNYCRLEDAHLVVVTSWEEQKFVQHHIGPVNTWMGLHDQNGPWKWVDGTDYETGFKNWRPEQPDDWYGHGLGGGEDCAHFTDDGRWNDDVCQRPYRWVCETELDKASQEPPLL
Excerpt: 2. The dataset was collected from a single crystal on beamline ID22 at the Argonne National Laboratory and processed with XDS/CCP4;
4. The 194C10 Fab/ASGR-1 CBD complex structure was solved by molecular replacement with the program Phaser; and […]

[2] = molecular target: T1, human ASGR-1 carbohydrate binding …; experiment: X-ray crystal structure of the complex, 2.1 A
[3] = molecular target: T2, human ASGR-1 (full length, expressed on cells) (human, UniProt P07306 1-291); experiment: flow cytometry; biotinylated ligand on CHO-S cells stably expressing ASGR-1, detected with streptavidin-AF647
T2 construct: single point mutants were made in the CBD in the context of full-length ASGR-1; also called hASGR-1; huASGR-1
T2 sequence: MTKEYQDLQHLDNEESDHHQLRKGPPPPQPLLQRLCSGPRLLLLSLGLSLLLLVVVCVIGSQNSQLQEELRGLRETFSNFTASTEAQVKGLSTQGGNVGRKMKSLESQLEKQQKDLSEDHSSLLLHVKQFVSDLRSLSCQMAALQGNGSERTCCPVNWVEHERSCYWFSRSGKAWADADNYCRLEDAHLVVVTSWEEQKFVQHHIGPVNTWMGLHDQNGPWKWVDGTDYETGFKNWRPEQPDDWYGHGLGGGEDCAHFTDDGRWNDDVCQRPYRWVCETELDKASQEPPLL

Human ASGR-2 = molecular target: T3, Human ASGR-2 (human, UniProt P07307 1-311); experiment: FACS on transfected HEK 293 cells; Y = signal at least 2x irrelevant IgG
T3 construct: Expressed on HEK 293 cells; cDNA GenBank NM_080913.3; also called huASGR-2; hASGR-2
T3 sequence: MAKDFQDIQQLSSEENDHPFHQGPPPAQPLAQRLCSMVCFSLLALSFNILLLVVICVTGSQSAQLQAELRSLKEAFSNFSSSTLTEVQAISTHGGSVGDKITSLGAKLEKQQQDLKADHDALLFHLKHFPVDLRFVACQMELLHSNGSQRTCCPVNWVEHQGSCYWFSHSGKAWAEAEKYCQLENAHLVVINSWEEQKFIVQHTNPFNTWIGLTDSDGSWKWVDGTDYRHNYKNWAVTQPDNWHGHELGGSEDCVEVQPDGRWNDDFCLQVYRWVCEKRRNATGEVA
Description: Human ASGR-1-specific, ligand competing antibody samples were tested for binding to ASGR-1 from other species (cynomologus monkey ASGR-1, mouse ASGR-1, rat ASGR-1, dog ASGR-1, and pig ASGR-1) as well as to human ASGR-2 in FACS binding assays at normalized antibody concentrations. For cell-based assays, HEK 293 cells expressing the appropriate antigen of interest were mixed with antibody sample or controls, incubated for 1 hour at 4° C., and then washed twice. Cells with bound antibody were then incubated with Alexa Fluor® 647 IgG Fc fragment-specific detection antibody and 7-AAD viability stain for 15 minutes at 4° C., washed once and resuspended in FACS buffer. Samples were analyzed using a BD Accuri™ Flow Cytometer and an Intellicyt HyperCyt Autosampler. As a negative control, supernatants and controls were also screened against HEK 293 cells transfected with empty parental vector. […] For membrane-prep binding assays, ASGR-1 species specific membrane preps were used to coat LumAvidin® microspheres (beads) and tested for binding to selected hybridoma supernatants or controls. Briefly, ASGR-1 species specific membrane preps were incubated with streptavidin-coated LumAvidin® beads for 45 minutes in the dark at room temperature and washed twice. Beads were resuspeneded in FACS buffer containing Stabilguard®. […] Samples were analyzed using an Intellicyt iQue™ Screener Platform. […]

Soluble ASGR-1 = molecular target: T4, Soluble ASGR-1 (human, UniProt P07306 62-291, biotinylated); experiment: limited antigen binding assay; biotinylated soluble ASGR-1 coated at 2.5 ng/mL on LumAvidin beads, FACS
T4 construct: Soluble recombinant protein; also called recombinant, soluble ASGR-1 biotinylated protein
T4 sequence: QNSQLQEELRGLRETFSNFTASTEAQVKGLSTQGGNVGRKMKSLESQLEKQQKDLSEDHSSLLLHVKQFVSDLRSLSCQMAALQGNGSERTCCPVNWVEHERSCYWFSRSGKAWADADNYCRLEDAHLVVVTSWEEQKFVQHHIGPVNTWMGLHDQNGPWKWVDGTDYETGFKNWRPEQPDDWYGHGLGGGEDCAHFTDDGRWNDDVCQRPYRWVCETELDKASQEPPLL
Description: To assess antibody and antigen interaction strength (relative binding affinity), ASGR-1 specific, ligand competing antibody hybridoma supernatants were tested in a limiting antigen binding assay. Titrated amounts of recombinant, soluble ASGR-1 biotinylated protein was incubated with streptavidin-coated LumAvidin Beads® for 45 minutes in the dark at room temperature and washed twice. Beads were resuspeneded in FACS buffer containing Stabilguard® and 0.05% Sodium Azide. Antigen-bound beads were then incubated with normalized hybridoma supernatant sample or controls for 18 hours in the dark at room temperature, washed twice, incubated with Alexa Fluor® 488 IgG fragment-specific detection antibody for 15 minutes in the dark at room temperature, washed once and finally resuspended in FACS buffer. Samples were analyzed using an Intellicyt iQue™ Screener Platform. FACS buffer supplemented with 1 mM Calcium Chloride was used in all steps. […] In this assay method, the antibody binding signal correlates with antibody affinity. Antibody binding data for a representative antigen coating concentration that fell in the linear range of the instrument signal detection is shown in Table 7.2. The degree of antibody binding to the target (ASGR-1) correlates with the measured fluorescent intensity and thus allows a relative comparison of affinities across the panel.

Mouse ASGR-1 = molecular target: T5, Mouse ASGR-1 (mouse, UniProt P34927 1-284); experiment: FACS on transfected HEK 293 cells or membrane preps on beads; binding = signal at least 2x irrelevant IgG
T5 construct: Expressed on HEK 293 cells or as membrane prep on beads; cDNA GenBank BC022106.1; also called muASGR-1; mASGR-1
T5 sequence: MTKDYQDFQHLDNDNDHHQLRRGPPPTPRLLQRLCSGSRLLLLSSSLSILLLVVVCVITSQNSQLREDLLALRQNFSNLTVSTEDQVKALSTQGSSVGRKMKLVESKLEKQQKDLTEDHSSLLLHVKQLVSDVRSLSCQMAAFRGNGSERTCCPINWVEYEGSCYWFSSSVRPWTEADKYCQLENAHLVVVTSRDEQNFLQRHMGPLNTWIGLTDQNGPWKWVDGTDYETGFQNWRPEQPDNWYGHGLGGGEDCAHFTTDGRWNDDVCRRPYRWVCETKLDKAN
Description: (§1) Human ASGR-1-specific, ligand competing antibody samples were tested for binding to ASGR-1 from other species (cynomologus monkey ASGR-1, mouse ASGR-1, rat ASGR-1, dog ASGR-1, and pig ASGR-1) as well as to human ASGR-2 in FACS binding assays at normalized antibody concentrations. For cell-based assays, HEK 293 cells expressing the appropriate antigen of interest were mixed with antibody sample or controls, incubated for 1 hour at 4° C., and then washed twice. Cells with bound antibody were then incubated with Alexa Fluor® 647 IgG Fc fragment-specific detection antibody and 7-AAD viability stain for 15 minutes at 4° C., washed once and resuspended in FACS buffer. Samples were analyzed using a BD Accuri™ Flow Cytometer and an Intellicyt HyperCyt Autosampler. As a negative control, supernatants and controls were also screened against HEK 293 cells transfected with empty parental vector. […] For membrane-prep binding assays, ASGR-1 species specific membrane preps were used to coat LumAvidin® microspheres (beads) and tested for binding to selected hybridoma supernatants or controls. Briefly, ASGR-1 species specific membrane preps were incubated with streptavidin-coated LumAvidin® beads for 45 minutes in the dark at room temperature and washed twice. Beads were resuspeneded in FACS buffer containing Stabilguard®. Antigen-bound beads were then incubated with normalized antibody sample for 1 hour in the dark at room temperature, washed twice, incubated with Alexa Fluor® 488 IgG Fc fragment-specific detection antibody for 15 minutes in the dark at room temperature, washed once and finally resuspended in FACS buffer. Samples were analyzed using an Intellicyt iQue™ Screener Platform. FACS buffer supplemented with 1 mM Calcium Chloride was used in all steps. As a negative control, supernatants and controls were also screened against a non-ASGR-1 antigen membrane prep coated on the LumAvidin® beads.

Cyno ASGR-1 = molecular target: T6, Cyno ASGR-1 (cynomolgus monkey, UniProt P07306 1-291 (human entry)); experiment: FACS on transfected HEK 293 cells or membrane preps on beads; Y = signal at least 2x irrelevant IgG
T6 construct: Expressed on HEK 293 cells or as membrane prep on beads; cDNA from XP_005582755; also called cynomologus monkey ASGR-1
T6 chain: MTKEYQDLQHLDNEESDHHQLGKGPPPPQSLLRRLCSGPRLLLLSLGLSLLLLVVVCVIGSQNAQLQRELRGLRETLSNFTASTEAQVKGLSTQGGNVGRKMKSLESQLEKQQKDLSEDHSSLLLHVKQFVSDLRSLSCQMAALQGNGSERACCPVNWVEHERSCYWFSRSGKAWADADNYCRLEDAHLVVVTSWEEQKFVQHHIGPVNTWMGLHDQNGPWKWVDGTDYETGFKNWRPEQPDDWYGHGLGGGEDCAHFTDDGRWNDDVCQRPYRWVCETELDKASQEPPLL
Description: as §1

Dog ASGR-1 = molecular target: T7, Dog ASGR-1 (dog); experiment: as above
T7 construct: Expressed on HEK 293 cells or as membrane prep on beads; cDNA GenBank XM_546579
T7 chain: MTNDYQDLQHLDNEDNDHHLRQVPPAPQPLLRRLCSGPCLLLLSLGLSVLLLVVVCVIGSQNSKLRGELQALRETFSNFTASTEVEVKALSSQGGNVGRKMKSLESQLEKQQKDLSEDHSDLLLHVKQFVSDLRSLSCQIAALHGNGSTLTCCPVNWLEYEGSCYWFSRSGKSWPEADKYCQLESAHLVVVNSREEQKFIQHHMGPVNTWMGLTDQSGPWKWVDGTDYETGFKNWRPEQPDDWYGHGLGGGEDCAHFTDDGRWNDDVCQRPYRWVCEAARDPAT
Description: as §1

Pig ASGR-1 = molecular target: T8, Pig ASGR-1 (pig); experiment: as above
T8 construct: Expressed on HEK 293 cells or as membrane prep on beads; cDNA GenBank NM_001244458
T8 chain: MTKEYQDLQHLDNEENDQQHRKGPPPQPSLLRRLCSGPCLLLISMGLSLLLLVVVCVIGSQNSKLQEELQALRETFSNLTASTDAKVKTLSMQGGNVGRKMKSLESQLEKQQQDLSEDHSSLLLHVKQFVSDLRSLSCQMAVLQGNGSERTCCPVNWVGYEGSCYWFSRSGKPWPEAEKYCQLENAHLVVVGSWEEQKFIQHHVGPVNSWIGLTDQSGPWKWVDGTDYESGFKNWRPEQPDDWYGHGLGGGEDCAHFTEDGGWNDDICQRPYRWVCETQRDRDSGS
Description: as §1

[4] = molecular target: T1, human ASGR-1 carbohydrate binding …; experiment: X-ray crystal structure, legend of FIG. 25

B1: 194C10 Fab (Fab, V domains shown)
VH: QVQLQQWGAGLLKPSETLSLTCAVSGGSFRYYYWSWIRQPPGKGLEWFGEINHAGSTNYNPSLKSRVTISIDTSKNQFSLKLRSVTAADTAVYYCARDYGAFDIWGQGTMVTVSS
VL: EIVLTQSPGTLSLSPGERATLSCRASPSVNSGYLAWYQQKPGQTPRLLIFGASSRATGIPDRFSASGSGADFTLTISRLEPEDFAVYFCQQYESSPWTFGQGTKVEIKR
notes: also called Fab fragment of 194C10
- binding result [1]: binds

B2: 22G5 Fab (Fab, V domains shown)
VH: EVQLLESGGGLVQPGGSLRLSCAASGFTFSSYAMNWVRQAPGMGLEWVSVISRSGGYTYYADSVKGRFTISRDNSKNTLYLQMNSLRAEDTAVYYCASRLAVAGSEAFDIWGQGTLVTVSS
VL: DIQMTQSPSSLSASVGDRVTITCRASQNISSYLNWYQQKQGKAPKLLIYAASSLQNGVPSRFSGRGSGTDFTLTISSLQPEDFATYYCQQSYRTPLFTFGPGTKVDFK
modifications: N-acetylglucosamine (NAG100) is listed among the light chain boundary residues
notes: Made by cleaving the 22G5-IgG4 mAb with papain; also called Fab fragment of 22G5
- binding result [2]: binds

B3: desialylated, biotinylated asialofetuin (bovine fetuin, AHSG) (ligand, UniProt P12763 19-359, looked up)
chain: IPLDPVAGYKEPACDDPDTEQAALAAVDYINKHLPRGYKHTLNQIDSVKVWPRRPTGEVYDIEIDTLETTCHVLDPTPLANCSVRQQTQHAVEGDCDIHVLKQDGQFSVLFTKCDSSPDSAEDVRKLCPDCPLLAPLNDSRVVHAVEVALATFNAESNGSYLQLVEISRAQFVPLPVSVSVEFAVAATDCIAKEVVDPTKCNLLAEKQYGFCKGSVIQKALGGEDVRVTCTLFQTQPVIPQPQPDGAEAEAPSAVPDAAGPTPSAAGPPVASVVVGPSVVAVPLPLHRAHYDLRHTFSGVASVESSSGEAFHVGKTPIVGQPSIPGGPVRLCPGRIRYFKI
modifications: desialated with C. perfringens and A. ureafaciens neuraminidases; biotinylated with Innolink Biotin 354S
notes: also called bn-asialofetuin; protein ligand
- EC50 [3]: 10.7 nM

B4: 7F4 (antibody, V domains shown)
VH: QLQLQESGPGLVKPSETLSLTCTVSGGSISRSSYYWGWIRQPPGKGLEWIGNIYYSGATYYNPSLKSRVTISVDTSTNQFSLKLSSVTAADTAVYYCARHSGSWSLDYWGQGTLVTVSS
VL: DIQMTQSPSSLSASVGDRVTITCRTSQGIRNDLGWYQQKPGKAPKRLIYAASNLQSGVPSRFSGSGSGTEFTLTISSLQPEDFATYYCLQHSAYPLTFGGGTKVEIK
notes: Tested as hybridoma supernatant at normalized concentration
- binding result (Human ASGR-2): binds
- FACS Geomean (Soluble ASGR-1): 4910 FACS Geomean
- binding result (Mouse ASGR-1): no binding
- binding result (Cyno ASGR-1): binds
- binding result (Dog ASGR-1): binds
- binding result (Pig ASGR-1): binds

B5: 4A2 Fab (Fab, V domains shown)
VH: QVQLVQSGTEVKKPGASVKVSCKASGYTFTNYDINWVRQATGQGLEWMGWMHPNSGNTGYAQKFQGRVTLTRDTSISTAYMELSSLRSEDTAVYYCASSSGWYYFDYWGQGTLVTVSS
VL: DIVMTQSPDSLAVSLGERATINCKSSQSILHSSNNNNYLAWFQQKPGQPPKLLLYWASTRESGVPDRFSGSGSGTDFTLTISSLQPEDVAVYYCQQYYNTPVTFGPGTKVGIKR
notes: Expressed directly as a Fab, with a double stop codon at the end of the CH1 domain; also called Fab fragment of 4A2
- binding result [4]: binds
